Assay results: article PMC8633581
pKd: −log10 of the molar value.

Tests used:
[1] = molecular target: Gαq/i (chimera between Gαq and Gαi), as used in fluorescence polarisation; test: fluorescence polarisation; direct binding of HTH peptide and Gαq/i; conditions not given
[2] = molecular target: 1EBB-graft, displayed on yeast (Geobacillus stearothermophilus); test: flow cytometry on cells; yeast surface titration: yeast displaying the construct, biotinylated Gαq/i 1 nM to 7.5 μM with AlF4-, 1 h on ice, streptavidin-phycoerythrin; 10 mM HEPES pH 8.0, 150 mM NaCl, 10 mM MgCl2, 30 μM AlCl3, 10 mM NaF, 0.1% BSA; one-step isotherm, apparent KD
[3] = molecular target: 171L-graft, displayed on yeast (phage T4) (UniProt P00720); test: as above
[4] = molecular target: HTH peptide of PLC-β3 with the mutations I860A and V866W, expressed on the surface of yeast; test: as above

Substance “TAMRA-labeled HTH peptide (I860A) derived from PLC-β3” has a pKd [1] of 6.40.

With “soluble HTH peptide of PLC-β3 with the V866W mutation” the pKd [1] was 6.54 and the fold increase of affinity against the original HTH peptide [1] was > 14 fold.

“biotinylated Gαq/i (chimera between Gαq and Gαi, with C-terminal avitag)” was tested, and the pKd [2] was 5.70, the pKd [3] was 5.77 and the pKd [4] was 6.40.
